# Data taken from the supplement of paper PMC9170038.
# Test system: MS2 coat protein
# Test: apparent KD of MS2 coat protein; designed switch direction (-1 OFF switch, 1 ON switch): -1; higher = weaker reporter binding
# Procedure, shortened: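 RNA switches sharing common flanks were transcribed by stalled E. coli RNA polymerase on Illumina chips. A doubling series of SNAP-549-labelled MS2 coat protein, from 0.7 or 1.5 nM to 3 µM, was applied in Tris-HCl pH 7.5 buffer with KCl, MgCl2, BSA, DTT, tRNA and Tween-20. Each step lasted 0.8–1.5 h at the bottom of the series and 10–20 min at the top. Normalised cluster fluorescence was curve-fitted, giving apparent KD as the per-design median over clusters.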
# [1] = Eterna round: R95, input ligand: FMN 200 uM
# [2] = Eterna round: R95, input ligand: microRNA oligo, concentration not stated
# [3] = Eterna round: R95, input ligand: none
# [4] = input ligand: microRNA oligo, concentration not stated
Sequence,apparent KD of MS2 coat protein (input ligand: FMN 200 uM),apparent KD of MS2 coat protein (input ligand: none),apparent KD of MS2 coat protein [1],apparent KD of MS2 coat protein [2],apparent KD of MS2 coat protein [3],apparent KD of MS2 coat protein [4]
"AUAGAUCGUUAGGAUAUCCAGAUGACCCUCGUUGGAGAAGGAACGACAUGAGGAUCACCCAUGUUAUAGUACUU [Eternabot (L2) Solution 66] (Eterna round: R97, puzzle: Exclusion 6)",0.0169 µM,0.0185 µM,–,–,–,–
"AUAGGAGGAGGAUAUGAAACCGAUAACAUGAGGAUCACCCAUGUCGAAAGAACUUUCCGGUCAGAAGGCCUGAUGU [Eternabot (L2) Solution 60] (Eterna round: R97, puzzle: Exclusion 5)",0.0163 µM,0.0251 µM,–,–,–,–
"AUAGGCUUUUAUAUCCUUAACAUGAGGAUCACCCAUGUUCGUCUUAUGAUGGUCUGAUCCCUGAGGAUCGGACCGUU [JL-sv1-2.05 Brourd Mod] (puzzle: Sensor v3, turn-off variant 1)",–,–,0.0323 µM,0.134 µM,0.0354 µM,–
"AUAGUAUUGCAAGGAUAUCGAUUUAGUUUGUUUCGAGAAGGUGCUUUAGUUUAUACCUCUUGUUUACAUGAGGAUCACCCAUGU [JR_ExcNG1_Sub049] (Eterna round: R96, puzzle: Exclusion NG 1)",0.0185 µM,0.0275 µM,–,–,–,0.0192 µM
"AUAGUGUUAGGAUAUGCUUAUGCUGGGUAGUCCAGUAUGGAGUAGAAGGGACAUGAGGAUCACCCAUGUGCUCA [EX4 #40] (Eterna round: R97, puzzle: Exclusion 4)",0.0186 µM,0.0205 µM,–,–,–,–
"AUAUAGAUGGUCAGGAUAUGCUAGUGGUAACAGUAGCAGAAGGGACAUGAGGAUCACCCAUGUAGAUCCUGCUC [Brourd's EX4 #13] (Eterna round: R97, puzzle: Brourd's mod of Exclusion 4)",0.0335 µM,0.0211 µM,–,–,–,–
AUAUAUAGUGUGAGGAUAUGCUGGUCCUUGGAUCAGCAGAAGGCACAUGAGGAUCACCCAUGUAGUUUAUUUUU [Mat - Exclusion 4 - JL Mod - D5] (puzzle: Brourd's mod of Exclusion 4),–,–,–,0.0262 µM,–,–
"AUAUAUAUAGGAUAUACAUGAGGAUCACCCAUGUAAAGUAGCUUGCGUACAGGCAGAUGUAGAAGGAUAUAUAU [Mod of JL 15 - Jieux - Exclusion 3] (Eterna round: R97, puzzle: Exclusion 3)",0.0292 µM,0.0331 µM,–,–,–,–
"AUAUCCAGAGGAUAUCCGCACGGACACAUGAGGAUCACCCAUGUUUUCAUGAACGUUGCCGGAGAAGGCUGAGGAA [Eternabot (Original) Solution 10] (Eterna round: R97, puzzle: Exclusion 5)",0.0797 µM,0.0697 µM,–,–,–,–
"AUAUGUAACUAGGAUAUCAGCAUACUUCAAUGUUGAGAAGGAGUUACAUGAGGAUCACCCAUGUAUCCAACAUG [Exclusion 6 - 3] (Eterna round: R96, puzzle: Exclusion 6)",0.0733 µM,0.0671 µM,–,–,–,0.0567 µM
AUAUGUAACUAGGAUAUCAGCAUACUUCAAUGUUGAGAAGGAGUUACAUGAGGAUCACCCAUGUAUCCAACAUG [Exclusion 6 - 3] (puzzle: Exclusion 6),–,–,–,0.0441 µM,–,–
"AUAUUGUGAGGAUAUGAACUUAGUAUCGAAAGAUUCUAAGUUCAGAAGGCACAUGAGGAUCACCCAUGUUUCUC [Long static hairpin v20] (Eterna round: R97, puzzle: Exclusion 4)",0.808 µM,0.0819 µM,–,–,–,–
"AUAUUUAAGCUUUUGUGAAACAUGAGGAUCACCCAUGUCCUCAUACCUGGACAUUUAAGUCUAGGAGCUCGUCUUAU [Last end dangle 1] (Eterna round: R97, puzzle: Sensor, turn-off variant 1)",0.518 µM,0.558 µM,–,–,–,–
"AUAUUUAGCUUUUUGUGAAACAUGAGGAUCACCCAUGUCCUCAUACCUGGACAUUUAAGUCUAGGAGCUCGUCUUAU [Last end dangle 2] (Eterna round: R97, puzzle: Sensor, turn-off variant 1)",0.479 µM,0.612 µM,–,–,–,–
"AUCAAAUUAAAUACAGAUCACAUGAGGAUCACCCAUGUCGUACGAGUGCAGAUCUUUGAAGCUGGCUCGUCUAAGUG [Eternabot (L2) Solution 21] (Eterna round: R97, puzzle: Sensor, turn-off variant 1)",0.154 µM,0.165 µM,–,–,–,–
"AUCAGCUCGUCAGGAUAUACAUCACUGCUUCGGCAGUGUAUUAAGAUCACAUGAGGAUCACCCAUGUAGAAGGGACGAGCUGAU [ENG2/2-B3] (Eterna round: R96, puzzle: Exclusion NG 2)",0.342 µM,0.0253 µM,–,–,–,0.0182 µM
"AUCAGCUCGUCAGGAUAUACAUGAGGAUCACCCAUGUGGUCAAUAGCAGCUUCGGCUGCAUACAUGUAGAAGGGACGAGCUGAU [ENG2/7-B2] (Eterna round: R96, puzzle: Exclusion NG 2)",0.0284 µM,0.101 µM,–,–,–,0.894 µM

Sequence,apparent KD of MS2 coat protein (input ligand: FMN 200 uM),apparent KD of MS2 coat protein (input ligand: none),apparent KD of MS2 coat protein [1],apparent KD of MS2 coat protein [2],apparent KD of MS2 coat protein [3],apparent KD of MS2 coat protein [4]
"AUCAGCUCGUCAGGAUAUACAUGAUAGAUCGAUUAAUUAAUUAAUUUAACAUGAGGAUCACCCAUGUAGAAGGGACGAGCUGAU [ENG2/1-B3] (Eterna round: R96, puzzle: Exclusion NG 2)",–,–,–,–,–,0.0393 µM
"AUCAGCUCGUGAGGAUAUACAUGCGUGCUUCGGCACGUAUGAUAGAUCACAUGAGGAUCACCCAUGUAGAAGGUACGAGCUGAU [ENG2/4-C3] (Eterna round: R96, puzzle: Exclusion NG 2)",0.0126 µM,0.0126 µM,–,–,–,0.0107 µM
AUCAUGUAAGGAUAUCUGACAAGUGACGAAAGUCACAGUUCAGAGAAGGUACAUGAGGAUCACCCAUGUAGAAC [Ex4-3: 42] (puzzle: Exclusion 4),–,–,0.0824 µM,0.0513 µM,0.0716 µM,–
"AUCAUGUAAGGAUAUGAAAGUAAACGCGUGAAGACCACGCAUCAGAAGGUACAUGAGGAUCACCCAUGUGUCCG [Soesatle] (Eterna round: R97, puzzle: Exclusion 4)",0.0606 µM,0.0198 µM,–,–,–,–
"AUCAUGUUAGGAUAUACAAGAAAAGAAAAGAAAGAAAAGAAGUAGAAGGAACAUGAGGAUCACCCAUGUAAGAA [EteRNA is fun!] (Eterna round: R96, puzzle: Exclusion 4)",–,–,–,–,–,0.023 µM
"AUCCGGCGUGUAGGAUAUGGUUCCGUUUCGGUUCCAGAAGGACAUGAGGAUCACCCAUGUGCCUGUCGUCGGUCGUCACCGGGC [salish99_ExNG1_r04_218] (Eterna round: R96, puzzle: Exclusion NG 1)",0.0437 µM,0.0165 µM,–,–,–,0.0134 µM
"AUCCUACAUGAGGAUCACCCAUGUCAGGAUAUCCAAGAAAUAUGGCCGUAUCGGCCAUGGAGAAGGGAUAUGGG [jl-ex1-4.67 ViennaUCT mod] (Eterna round: R97, puzzle: Exclusion 1)",0.0265 µM,0.115 µM,–,–,–,–
"AUCCUACAUGAGGAUCACCCAUGUCAGGAUAUCCAAGAAAUCUGGCCGUAUCGGCCAGGGAGAAGGGAUAUGGG [jl-ex1-4.64 ViennaUCT mod] (Eterna round: R97, puzzle: Exclusion 1)",0.0577 µM,0.0742 µM,–,–,–,–
"AUCGUGCAGCAAAGCUGUACGAGUACAUGAGGAUCACCCAUGUAGGAUAUGGUACGCAAAGCGUGCUAGAAGGAUAUGUGUAAG [Mat - Exclusion NG 3 - Mod of JL - D85] (Eterna round: R96, puzzle: Exclusion NG 3)",0.0655 µM,0.0616 µM,–,–,–,0.0399 µM
"AUCGUGCAGCUUUGCUGUACGAGUACAUGAGGAUCACCCAUGUAGGAUAUGGUACGCUUUGCGUGCUAGAAGGAUAUGAGAUUU [JL ENG3 1.50] (Eterna round: R96, puzzle: Exclusion NG 3)",0.0417 µM,0.0386 µM,–,–,–,0.0243 µM
"AUCUGCACGCUGCGGUCCUACAUGAGGAUCACCCAUGUGGUCUGGUGGCGUGGGUCGCCGGACUUGGCUCGUCUUGG [salish99_S_TOV1_R5_050] (Eterna round: R97, puzzle: Sensor, turn-off variant 1)",0.0154 µM,0.0152 µM,–,–,–,–
"AUCUUGUCAGGAUAUCGUACAAUAUGGAAAACAUAGAGGUACGAGAAGGGACAUGAGGAUCACCCAUGUAAAAC (Eterna round: R96, puzzle: Exclusion 4)",–,–,–,–,–,0.029 µM
AUGAGACAUGAGGAUCACCCAUGUGAGGAUAUGUAUGGAUGGUAGAAAGAAUGAAAGAACAGAAGGCACGUAGA [JR_Exclu1_Sub061] (puzzle: Exclusion 1),–,–,0.143 µM,0.15 µM,0.21 µM,–
"AUGAGAGCAGGAUAUGCAGGUGUGCCGGAAGAAAGAAGAAGACAUGAGGAUCACCCAUGUAGAAGGGCUAGCCC [Bibidi] (Eterna round: R96, puzzle: Exclusion 2)",–,–,–,–,–,0.0152 µM
"AUGAGCAGACGGAGAUCCAACAUGAGGAUCACCCAUGUCUCAAAAGCUUUUUGCUCAUCUUAUCGUACCUUGGUGCA [Mat - Sensor v3 - turn-off var 1 - JL Mod - D14] (puzzle: Sensor v3, turn-off variant 1)",–,–,0.191 µM,0.0132 µM,0.197 µM,–
AUGAGGUUAGGAUAUACAUGAGGAUCACCCAUGUUGGAGGGUAAGGUAGGAGAAGAAAGUAGAAGGAACGGAGC [JR_Exclu3_Sub058] (puzzle: Exclusion 3),–,–,0.0684 µM,0.0825 µM,0.0996 µM,–
"AUGAGUUGAGGAUAUACGUGAGGCGUUAACGCCGCCAGUCAACAUGAGGAUCACCCAUGUAGAAGGCAACCGUC [Eternabot (L1) Solution 6] (Eterna round: R97, puzzle: Exclusion 2)",0.0221 µM,0.0197 µM,–,–,–,–
